Values belong to the binder of their own block, whether it stands above or below them.
Experiments:
[1] = molecular target: T1, Recombinant human Siglec-9-His (human, UniProt Q9Y336 18-348); assay: BLI (Octet Red384), chimeric antibody on AHC sensor, His-tagged analyte 100-1.56 nM, 1:1 global fit
T1 construct: The entry begins at QTSK... like the Q18-G348 extracellular domain of the Fc fusion and ends in GSG and a His tag
Experimental: (§1) The binding affinity of chimeric antibodies was determined by biolayer interferometry (BLI), using a ForteBio Octet Red384 system. All samples were prepared in black 96-well flat bottom plates (Greiner, Cat. #655209) diluted in kinetics buffer (lx DPBS (Gibco, Cat. #LS14190250) containing 0.1% bovine serum albumin, 0.05% sodium azide, and 0.02% Tween®20). Anti-SIGLEC-9 antibodies (ligand) were diluted to a final concentration of 10 ug/mL and captured on anti-human IgG Fc capture (AHC) biosensors (ForteBio, Cat. #18-5060). […] Biosensors were rehydrated prior to the assay in kinetics buffer for 10 minutes and then equilibrated in kinetics buffer for 60 seconds. Antibody was then immobilized for 300 seconds followed by a 120 second baseline wash in fresh kinetics buffer, 300 second analyte association, and 300 second dissociation in the same buffer wells as the baseline wash step. All assay steps occurred at 30° C. with an acquisition rate of 5.0 Hz
(§2) Processing parameters included double reference subtraction, with human IgG4 used as an isotype control for reference sensor subtraction and immobilized ligand in kinetics buffer with no analyte used for reference sample subtraction. Y-axis data was aligned to the average baseline step for the last 5 seconds and all steps were inter-step corrected to the start of the dissociation step. High frequency noise was removed using Savitzky-Golay filtering and final fitting was a 1:1 global binding model to both association and dissociation.

[2] = molecular target: T2, Recombinant cyno Siglec-9-His (cynomolgus macaque); assay: as above
T2 construct: also called Cynomolgus Monkey SIGLEC9-HIS
T2 sequence (chain, as listed by the source limits assumed): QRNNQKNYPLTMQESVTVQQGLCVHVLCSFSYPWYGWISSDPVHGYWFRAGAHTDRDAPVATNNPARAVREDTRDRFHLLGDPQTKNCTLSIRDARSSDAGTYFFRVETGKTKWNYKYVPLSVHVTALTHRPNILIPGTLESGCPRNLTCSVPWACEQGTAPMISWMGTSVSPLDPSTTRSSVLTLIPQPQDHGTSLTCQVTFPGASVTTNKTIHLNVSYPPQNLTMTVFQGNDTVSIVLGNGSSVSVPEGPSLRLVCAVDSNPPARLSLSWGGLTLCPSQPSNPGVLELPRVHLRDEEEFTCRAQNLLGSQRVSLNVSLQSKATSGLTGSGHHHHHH
Experimental: as §1, §2

[3] = molecular target: T3, Recombinant human Siglec-7-His (human, UniProt Q9Y286 19-353, limits assumed); assay: as above
T3 sequence (Q9Y286 19-353 limits assumed): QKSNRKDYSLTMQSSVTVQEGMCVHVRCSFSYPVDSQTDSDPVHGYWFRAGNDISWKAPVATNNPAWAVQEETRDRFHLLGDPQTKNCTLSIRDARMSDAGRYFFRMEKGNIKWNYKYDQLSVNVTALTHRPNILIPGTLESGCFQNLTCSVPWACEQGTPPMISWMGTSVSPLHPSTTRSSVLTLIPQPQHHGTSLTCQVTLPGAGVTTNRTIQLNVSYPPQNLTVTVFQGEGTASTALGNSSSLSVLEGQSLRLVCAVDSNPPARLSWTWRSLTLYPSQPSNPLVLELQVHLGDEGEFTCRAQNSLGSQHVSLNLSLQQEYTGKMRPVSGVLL
Experimental: as §1, §2

[4] = molecular target: Human Siglec-9-Fc (recombinant human Siglec-9 extracellular domain Q18-G348 fused to human IgG1 Fc) (human); assay: ELISA: plate coated with 1 ug/mL human Siglec-9-Fc, antibody at 100 nM, HRP anti-mouse Fc secondary, RLU
Chain of Human Siglec-9-Fc (recombinant human Siglec-9 extracellular domain Q18-G348 fused to human IgG1 Fc) (human) (chain, as listed by the source limits assumed): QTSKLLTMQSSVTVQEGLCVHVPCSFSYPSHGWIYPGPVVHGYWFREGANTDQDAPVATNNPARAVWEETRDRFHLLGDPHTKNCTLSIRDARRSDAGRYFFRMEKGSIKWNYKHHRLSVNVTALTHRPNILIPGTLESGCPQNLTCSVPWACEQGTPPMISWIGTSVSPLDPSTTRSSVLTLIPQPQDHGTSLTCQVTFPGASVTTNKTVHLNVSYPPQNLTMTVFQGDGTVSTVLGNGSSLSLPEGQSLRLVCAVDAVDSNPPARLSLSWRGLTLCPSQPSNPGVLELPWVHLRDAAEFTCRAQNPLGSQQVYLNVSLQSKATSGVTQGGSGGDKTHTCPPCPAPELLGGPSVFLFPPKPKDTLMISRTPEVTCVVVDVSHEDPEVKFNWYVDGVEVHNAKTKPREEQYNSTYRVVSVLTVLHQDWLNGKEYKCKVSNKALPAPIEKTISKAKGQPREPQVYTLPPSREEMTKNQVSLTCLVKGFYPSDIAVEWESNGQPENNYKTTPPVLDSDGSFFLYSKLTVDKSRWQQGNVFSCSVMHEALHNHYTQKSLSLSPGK
Experimental: ELISA plates (384-well) were coated with 1 ug/mL indicated SIGLEC protein at room temperature. The plates were washed with PBS with 0.1% Tween®20, pH 7.4 and blocked with TBS containing 3% BSA. The plates were washed and incubated with anti-SIGLEC9 antibody diluted to 100 nM. Plates were washed and incubated with HRP-coupled anti-mouse Fc secondary antibody. Plates underwent a final wash and were incubated with HRP substrate. Readout was performed using a POLARstar Omega Microplate Reader (BMG LAPTECH).

[5] = molecular target: T2, Recombinant cyno Siglec-9-His; assay: BLI (Octet Red384), chimeric antibody on AHC sensor, His-tagged analyte
Experimental: as §1, §2

[6] = molecular target: T3, Recombinant human Siglec-7-His; assay: as above
Experimental: as §1, §2

T1 sequence (Q9Y336 other isoform, or with tags, fused parts or gaps limits assumed): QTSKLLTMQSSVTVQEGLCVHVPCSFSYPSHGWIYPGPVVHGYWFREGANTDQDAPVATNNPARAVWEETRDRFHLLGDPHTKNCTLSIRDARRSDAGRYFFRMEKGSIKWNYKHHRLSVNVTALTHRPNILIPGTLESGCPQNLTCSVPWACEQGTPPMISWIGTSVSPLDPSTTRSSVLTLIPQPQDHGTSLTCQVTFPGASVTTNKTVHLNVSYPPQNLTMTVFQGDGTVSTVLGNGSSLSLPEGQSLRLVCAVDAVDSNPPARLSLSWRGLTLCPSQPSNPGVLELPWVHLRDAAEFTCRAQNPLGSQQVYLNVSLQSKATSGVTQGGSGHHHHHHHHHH

Kd [1]: 2.1 pM
Kd [2]: 6.8 pM
Kd [3]: 20000 pM
B1: 13J19 mouse/human chimeric antibody (human IgG4 S228P, kappa) (antibody, V domains shown)
VH: QVQLKESGPGLVAPSQSLSITCTVSGFSLTSYGVSWVRQPPGKGLEWLGVVWRDGTTNYHSALISRLSISKDNSKSQVFLKLNSLQTDDTATYYCARPYYGFFDYWGQGTTLTVSS
VL: SIVMTQTPKFLLVSAGDRVTVTCKASQSVSNAVAWYQQKPGQSPKLLIYYASNRYTGVPDRFTGSGYGTDFTFTISTVQAEDLAVYFCQQNYNSPYTFGGGTKLEIKR
notes: 13J19 is deposited as ATCC PTA-125945

binding result [4]: binds
B2: 2E23 (antibody, V domains shown)
VH: QVQLQQPGAELVKPGASVKLSCKASGYTFTSYWMHWVKQRPGQGLEWIGEINPSNGGTNYNEKFKSKATLTVDKSSSTAYMQLSSLTSEDSAVYYCTIYYGDYSYPIDYWGQGTSVTVSS
VL: QIVLTQSPAIMSASPGEKVTLTCSASSSVSSSYLYWYQQKPGSSPKLWIYSTSNLASGVPTRFSGSGSGTSYCLTISSMETEDAASYFCHQYSSYPFTFGSGTKLEIK

Kd [1]: 2.6 pM
B3: 13H10 mouse/human chimeric antibody (human IgG4 S228P, kappa) (antibody, V domains shown)
VH: QVQLQQPGAELVKPGASVKLSCKASGYTFTSYWMYWVKQRPGQGLDLIGEINPSNGGTNYNEKFKSKATLTVDKSSGTAYMQLSSLTSEDSAVYYCAIWKDYYGISYEDWYFDVWGTGTTVTVSS
VL: DILLTQSPAILSVSPGERVSFSCRASQSIGTSIHWYQQRTNGSPRLLIKYASESISGIPSRFSGSGSGTDFTLSINSVESEDIADYYCQQSNSWPLTFGAGTKLELKR
notes: 13H10 is deposited as ATCC PTA-125944
binding result [5]: no binding (tested: analyte titrated from 100 nM to 1.56 nM)
binding result [6]: no binding (tested: analyte titrated from 100 nM to 1.56 nM)

Reference: US20220396627A1 (VERSEAU THERAPEUTICS, published 2022)
